Reference: paper PMC3593993

Target: constitutively active Go2α (Go2αQ205L), Gal4 DNA-binding domain fusion (pGBKT7-Go2αQ205L) (UniProt P18872)
Assay: two-hybrid

fold of the interaction (α-galactosidase activity) against Go1αQ205L: 2.5 fold
Substance: Girdin prey of the mating and α-galactosidase experiments (pACT2-Girdin) (from UniProt Q5SNZ0 1318-1873) (domain or fragment)
